For assay [1], the target named is binding partner of C5A (XPA23). Nature of the assay: Biacore.
Assay [2] has as its target binding partner of C5A (XPA23). Nature of the assay: Biacore, K-off.
Assay [3] concerns the target binding partner (antigen) of C5A (XPA23). Nature of the assay: Biacore, K-off, fold vs original.

B1: C5A (XPA23) VH Y107D (antibody, V domains shown)
VH: EVQLLESGGGLVQPGGSLRLSCAASGFTFSKYFMFWVRQAPGKGLEWVSVISPSGGMTRYADSVKGRFTISRDNSKNTLYLQMNSLRAEDTAVYYCARVGYGGNSDDWGQGTLVTVSS
VL: DIQMTQSPSSVSASVGDRLTIICRASQDINRWLAWYQQTPGNAPKLLIHSATSLQSGVPSRFSGSGSGTDFTLTINSLQPEDFATYYCQQADSFPLTFGGGTKVEIK
As for B1, the fold affinity vs original in assay [1] stood at 0.85 fold. For the same molecule, the fold difference in affinity vs original in assay [2] came out at 0.85 fold.

B2: C5A (XPA23) VH F35L (antibody, V domains shown)
VH: EVQLLESGGGLVQPGGSLRLSCAASGFTFSKYFMLWVRQAPGKGLEWVSVISPSGGMTRYADSVKGRFTISRDNSKNTLYLQMNSLRAEDTAVYYCARVGYGGNSDYWGQGTLVTVSS
VL: DIQMTQSPSSVSASVGDRLTIICRASQDINRWLAWYQQTPGNAPKLLIHSATSLQSGVPSRFSGSGSGTDFTLTINSLQPEDFATYYCQQADSFPLTFGGGTKVEIK
In the case of B2, the fold difference in affinity vs original in assay [1] and in assay [3] was 0.78 fold throughout.

B3: C5A (XPA23) VH V50A (antibody, V domains shown)
VH: EVQLLESGGGLVQPGGSLRLSCAASGFTFSKYFMFWVRQAPGKGLEWVSAISPSGGMTRYADSVKGRFTISRDNSKNTLYLQMNSLRAEDTAVYYCARVGYGGNSDYWGQGTLVTVSS
VL: DIQMTQSPSSVSASVGDRLTIICRASQDINRWLAWYQQTPGNAPKLLIHSATSLQSGVPSRFSGSGSGTDFTLTINSLQPEDFATYYCQQADSFPLTFGGGTKVEIK
On to B3, for which the fold difference in affinity vs original in assay [1] and in assay [3] was 0.09 fold in each case.

B4: C5A (XPA23) VH V50G (antibody, V domains shown)
VH: EVQLLESGGGLVQPGGSLRLSCAASGFTFSKYFMFWVRQAPGKGLEWVSGISPSGGMTRYADSVKGRFTISRDNSKNTLYLQMNSLRAEDTAVYYCARVGYGGNSDYWGQGTLVTVSS
VL: DIQMTQSPSSVSASVGDRLTIICRASQDINRWLAWYQQTPGNAPKLLIHSATSLQSGVPSRFSGSGSGTDFTLTINSLQPEDFATYYCQQADSFPLTFGGGTKVEIK
Consider B4, for which the fold difference in affinity vs original in assay [1] and in assay [3] was 0.03 fold throughout.

B5: C5A (XPA23) VH V50L (antibody, V domains shown)
VH: EVQLLESGGGLVQPGGSLRLSCAASGFTFSKYFMFWVRQAPGKGLEWVSLISPSGGMTRYADSVKGRFTISRDNSKNTLYLQMNSLRAEDTAVYYCARVGYGGNSDYWGQGTLVTVSS
VL: DIQMTQSPSSVSASVGDRLTIICRASQDINRWLAWYQQTPGNAPKLLIHSATSLQSGVPSRFSGSGSGTDFTLTINSLQPEDFATYYCQQADSFPLTFGGGTKVEIK
Turning to B5, the fold difference in affinity vs original in assay [1] and in assay [3] was 0.09 fold in each case.

B6: C5A (XPA23) VH Y107Q (antibody, V domains shown)
VH: EVQLLESGGGLVQPGGSLRLSCAASGFTFSKYFMFWVRQAPGKGLEWVSVISPSGGMTRYADSVKGRFTISRDNSKNTLYLQMNSLRAEDTAVYYCARVGYGGNSDQWGQGTLVTVSS
VL: DIQMTQSPSSVSASVGDRLTIICRASQDINRWLAWYQQTPGNAPKLLIHSATSLQSGVPSRFSGSGSGTDFTLTINSLQPEDFATYYCQQADSFPLTFGGGTKVEIK
In the case of B6, in assay [1], the fold affinity vs original is 0.87 fold. For the same molecule, the fold difference in affinity vs original in assay [2] was found to be 0.87 fold.

B7: C5A (XPA23) VH F35A (antibody, V domains shown)
VH: EVQLLESGGGLVQPGGSLRLSCAASGFTFSKYFMAWVRQAPGKGLEWVSVISPSGGMTRYADSVKGRFTISRDNSKNTLYLQMNSLRAEDTAVYYCARVGYGGNSDYWGQGTLVTVSS
VL: DIQMTQSPSSVSASVGDRLTIICRASQDINRWLAWYQQTPGNAPKLLIHSATSLQSGVPSRFSGSGSGTDFTLTINSLQPEDFATYYCQQADSFPLTFGGGTKVEIK
Take B7: the fold difference in affinity vs original in assay [1] and in assay [3] was 0.07 fold throughout.

B8: C5A (XPA23) VH Y107S (antibody, V domains shown)
VH: EVQLLESGGGLVQPGGSLRLSCAASGFTFSKYFMFWVRQAPGKGLEWVSVISPSGGMTRYADSVKGRFTISRDNSKNTLYLQMNSLRAEDTAVYYCARVGYGGNSDSWGQGTLVTVSS
VL: DIQMTQSPSSVSASVGDRLTIICRASQDINRWLAWYQQTPGNAPKLLIHSATSLQSGVPSRFSGSGSGTDFTLTINSLQPEDFATYYCQQADSFPLTFGGGTKVEIK
As to B8, the fold affinity vs original in assay [1] turned out to be 0.89 fold. In addition, in assay [2], the fold difference in affinity vs original is 0.89 fold.

B9: C5A (XPA23) VH V50I (antibody, V domains shown)
VH: EVQLLESGGGLVQPGGSLRLSCAASGFTFSKYFMFWVRQAPGKGLEWVSIISPSGGMTRYADSVKGRFTISRDNSKNTLYLQMNSLRAEDTAVYYCARVGYGGNSDYWGQGTLVTVSS
VL: DIQMTQSPSSVSASVGDRLTIICRASQDINRWLAWYQQTPGNAPKLLIHSATSLQSGVPSRFSGSGSGTDFTLTINSLQPEDFATYYCQQADSFPLTFGGGTKVEIK
Turning to B9, the fold difference in affinity vs original in assay [1] and in assay [3] was 0.1 fold each time.

B10: C5A (XPA23) VH Y107E (antibody, V domains shown)
VH: EVQLLESGGGLVQPGGSLRLSCAASGFTFSKYFMFWVRQAPGKGLEWVSVISPSGGMTRYADSVKGRFTISRDNSKNTLYLQMNSLRAEDTAVYYCARVGYGGNSDEWGQGTLVTVSS
VL: DIQMTQSPSSVSASVGDRLTIICRASQDINRWLAWYQQTPGNAPKLLIHSATSLQSGVPSRFSGSGSGTDFTLTINSLQPEDFATYYCQQADSFPLTFGGGTKVEIK
B10: in assay [1], the fold affinity vs original worked out at 0.9 fold. Besides, the fold difference in affinity vs original in assay [2] was determined as 0.9 fold.

B11: C5A (XPA23) VH Y107T (antibody, V domains shown)
VH: EVQLLESGGGLVQPGGSLRLSCAASGFTFSKYFMFWVRQAPGKGLEWVSVISPSGGMTRYADSVKGRFTISRDNSKNTLYLQMNSLRAEDTAVYYCARVGYGGNSDTWGQGTLVTVSS
VL: DIQMTQSPSSVSASVGDRLTIICRASQDINRWLAWYQQTPGNAPKLLIHSATSLQSGVPSRFSGSGSGTDFTLTINSLQPEDFATYYCQQADSFPLTFGGGTKVEIK
As to B11, the fold difference in affinity vs original in assay [1] and in assay [2] was 0.83 fold throughout.

B12: C5A (XPA23) VH F35P (antibody, V domains shown)
VH: EVQLLESGGGLVQPGGSLRLSCAASGFTFSKYFMPWVRQAPGKGLEWVSVISPSGGMTRYADSVKGRFTISRDNSKNTLYLQMNSLRAEDTAVYYCARVGYGGNSDYWGQGTLVTVSS
VL: DIQMTQSPSSVSASVGDRLTIICRASQDINRWLAWYQQTPGNAPKLLIHSATSLQSGVPSRFSGSGSGTDFTLTINSLQPEDFATYYCQQADSFPLTFGGGTKVEIK
Turning to B12, the fold difference in affinity vs original in assay [1] and in assay [3] was 0.06 fold in each case.

B13: C5A (XPA23) VH Y107R (antibody, V domains shown)
VH: EVQLLESGGGLVQPGGSLRLSCAASGFTFSKYFMFWVRQAPGKGLEWVSVISPSGGMTRYADSVKGRFTISRDNSKNTLYLQMNSLRAEDTAVYYCARVGYGGNSDRWGQGTLVTVSS
VL: DIQMTQSPSSVSASVGDRLTIICRASQDINRWLAWYQQTPGNAPKLLIHSATSLQSGVPSRFSGSGSGTDFTLTINSLQPEDFATYYCQQADSFPLTFGGGTKVEIK
For the molecule B13, in assay [1], the fold affinity vs original is 0.85 fold. Further, the fold difference in affinity vs original in assay [2] is 0.85 fold.

B14: C5A (XPA23) VH F35I (antibody, V domains shown)
VH: EVQLLESGGGLVQPGGSLRLSCAASGFTFSKYFMIWVRQAPGKGLEWVSVISPSGGMTRYADSVKGRFTISRDNSKNTLYLQMNSLRAEDTAVYYCARVGYGGNSDYWGQGTLVTVSS
VL: DIQMTQSPSSVSASVGDRLTIICRASQDINRWLAWYQQTPGNAPKLLIHSATSLQSGVPSRFSGSGSGTDFTLTINSLQPEDFATYYCQQADSFPLTFGGGTKVEIK
On to B14, for which the fold difference in affinity vs original in assay [1] and in assay [3] was 0.85 fold each time.

B15: C5A (XPA23) VH I51A (antibody, V domains shown)
VH: EVQLLESGGGLVQPGGSLRLSCAASGFTFSKYFMFWVRQAPGKGLEWVSVASPSGGMTRYADSVKGRFTISRDNSKNTLYLQMNSLRAEDTAVYYCARVGYGGNSDYWGQGTLVTVSS
VL: DIQMTQSPSSVSASVGDRLTIICRASQDINRWLAWYQQTPGNAPKLLIHSATSLQSGVPSRFSGSGSGTDFTLTINSLQPEDFATYYCQQADSFPLTFGGGTKVEIK
B15: the fold difference in affinity vs original in assay [1] and in assay [3] was 1.04 fold in each case.

B16: C5A (XPA23) VH F35V (antibody, V domains shown)
VH: EVQLLESGGGLVQPGGSLRLSCAASGFTFSKYFMVWVRQAPGKGLEWVSVISPSGGMTRYADSVKGRFTISRDNSKNTLYLQMNSLRAEDTAVYYCARVGYGGNSDYWGQGTLVTVSS
VL: DIQMTQSPSSVSASVGDRLTIICRASQDINRWLAWYQQTPGNAPKLLIHSATSLQSGVPSRFSGSGSGTDFTLTINSLQPEDFATYYCQQADSFPLTFGGGTKVEIK
B16: the fold difference in affinity vs original in assay [1] and in assay [3] was 0.89 fold in each case.

B17: C5A (XPA23) VH F35G (antibody, V domains shown)
VH: EVQLLESGGGLVQPGGSLRLSCAASGFTFSKYFMGWVRQAPGKGLEWVSVISPSGGMTRYADSVKGRFTISRDNSKNTLYLQMNSLRAEDTAVYYCARVGYGGNSDYWGQGTLVTVSS
VL: DIQMTQSPSSVSASVGDRLTIICRASQDINRWLAWYQQTPGNAPKLLIHSATSLQSGVPSRFSGSGSGTDFTLTINSLQPEDFATYYCQQADSFPLTFGGGTKVEIK
Turning to B17, the fold difference in affinity vs original in assay [1] and in assay [3] was 0.04 fold in each case.

B18: C5A (XPA23) VH I51G (antibody, V domains shown)
VH: EVQLLESGGGLVQPGGSLRLSCAASGFTFSKYFMFWVRQAPGKGLEWVSVGSPSGGMTRYADSVKGRFTISRDNSKNTLYLQMNSLRAEDTAVYYCARVGYGGNSDYWGQGTLVTVSS
VL: DIQMTQSPSSVSASVGDRLTIICRASQDINRWLAWYQQTPGNAPKLLIHSATSLQSGVPSRFSGSGSGTDFTLTINSLQPEDFATYYCQQADSFPLTFGGGTKVEIK
As to B18, the fold difference in affinity vs original in assay [1] and in assay [3] was 0.94 fold each time.

B19: C5A (XPA23) VH Y107K (antibody, V domains shown)
VH: EVQLLESGGGLVQPGGSLRLSCAASGFTFSKYFMFWVRQAPGKGLEWVSVISPSGGMTRYADSVKGRFTISRDNSKNTLYLQMNSLRAEDTAVYYCARVGYGGNSDKWGQGTLVTVSS
VL: DIQMTQSPSSVSASVGDRLTIICRASQDINRWLAWYQQTPGNAPKLLIHSATSLQSGVPSRFSGSGSGTDFTLTINSLQPEDFATYYCQQADSFPLTFGGGTKVEIK
On to B19, for which the fold affinity vs original in assay [1] amounted to 0.82 fold. Further, the fold difference in affinity vs original in assay [2] was 0.82 fold.

(Values after patent publication US20110118447A1.)
